From article PMC2808448 (Biochemistry, 2010)

What was measured:
[1] = molecular target: T1, Sco3058 (Streptomyces coelicolor, UniProt Q93J45); test: ninhydrin-based dipeptidase assay, L-Leu-D-Ala substrate; assay type: biochemical
T1 sequence (Q93J45 1-400): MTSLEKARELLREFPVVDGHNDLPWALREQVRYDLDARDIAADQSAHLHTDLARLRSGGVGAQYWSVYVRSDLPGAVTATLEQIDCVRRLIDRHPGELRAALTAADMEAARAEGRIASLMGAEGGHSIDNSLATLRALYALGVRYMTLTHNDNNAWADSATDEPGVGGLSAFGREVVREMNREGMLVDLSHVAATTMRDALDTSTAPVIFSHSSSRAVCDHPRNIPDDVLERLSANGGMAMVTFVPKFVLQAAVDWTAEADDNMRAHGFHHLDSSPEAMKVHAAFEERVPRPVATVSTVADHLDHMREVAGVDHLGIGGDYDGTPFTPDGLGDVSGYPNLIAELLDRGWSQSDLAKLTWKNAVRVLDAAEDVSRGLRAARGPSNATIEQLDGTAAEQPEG

[2] = molecular target: T1, Sco3058; test: crystal structure at […] Å; assay type: biochemical
[3] = substrate: CSCC[C@H](N)C(=O)N[C@H](CC(C)C)C(=O)O; test: steady-state kinetics of hydrolysis by purified enzyme; assay type: biochemical, Streptomyces coelicolor; details: […] Zn2+
[4] = substrate: CC(C)C[C@H](N)C(=O)N[C@H](CCC(=O)O)C(=O)O; test: as above; assay type: biochemical, Streptomyces coelicolor; details: […] Zn2+
[5] = substrate: N=C(N)NCCC[C@H](N)C(=O)N[C@H](CC(=O)O)C(=O)O; test: as above; assay type: biochemical, Streptomyces coelicolor; details: […] Zn2+
[6] = substrate: CSCC[C@H](N)C(=O)N[C@H](CCC(=O)O)C(=O)O; test: as above; assay type: biochemical, Streptomyces coelicolor; details: […] Zn2+
[7] = substrate: CC(C)C[C@H](N)C(=O)N[C@H](C)C(=O)O; test: as above; assay type: biochemical, Streptomyces coelicolor; details: […] Zn2+
[8] = substrate: CC(C)C[C@@H](NC(=O)[C@@H](N)Cc1ccc(O)cc1)C(=O)O; test: purified protein; details: […] Zn2+

Q: NC(Cc1ccc(O)cc1)P(=O)(O)CC(CC(=O)O)C(=O)O (racemic) [compound 3, phosphinate pseudodipeptide mimic of Tyr-Asp] was tested. Which Ki [1] did it give?
A: The Ki was 1.1 ± 0.2 µM.

Q: NC(Cc1ccccc1)P(=O)(O)CC(CC(=O)O)C(=O)O (racemic) [compound 2, phosphinate pseudodipeptide mimic of Phe-Asp] was tested. Which Ki [1] did it give?
A: The Ki was 2.3 ± 0.3 µM.

Q: O=C(O)CC(O)(CC(=O)O)C(=O)O [citrate] was tested. Which Ki [2] did it give?
A: The Ki was 25000 ± 15000 µM.

B1: Sco3058 (Streptomyces coelicolor A3(2)) (protein)
chain: T1 sequence (Q93J45 1-400)
Q: B1 was tested. Which Km [3] did it give?
A: Its Km is 560 ± 30 µM.

Q: What about the kcat [3] of the same molecule?
A: The kcat was 194 ± 4 s⁻¹.

Q: And the kcat/Km [3]?
A: The kcat/Km was 350000 ± 30000 M⁻¹ s⁻¹.

Q: And the Km [4]?
A: Its Km is 550 ± 30 µM.

Q: And the kcat [4]?
A: The kcat was 135 ± 2 s⁻¹.

Q: And the kcat/Km [4]?
A: Its kcat/Km is 250000 ± 10000 M⁻¹ s⁻¹.

Q: What about the Km [5] of the same molecule?
A: Its Km is 140 ± 20 µM.

Q: What about the kcat [5] of the same molecule?
A: The kcat was 107 ± 3.2 s⁻¹.

Q: And the kcat/Km [5]?
A: The kcat/Km was 760000 ± 90000 M⁻¹ s⁻¹.

Q: And the Km [6]?
A: The Km was 890 ± 40 µM.

Q: What about the kcat [6] of the same molecule?
A: Its kcat is 340 ± 4 s⁻¹.

Q: And the kcat/Km [6]?
A: The kcat/Km was 380000 ± 20000 M⁻¹ s⁻¹.

Q: What about the Km [7] of the same molecule?
A: Its Km is 750 ± 40 µM.

Q: What about the kcat [7] of the same molecule?
A: The kcat was 160 ± 3 s⁻¹.

Q: And the kcat/Km [7]?
A: Its kcat/Km is 210000 ± 10000 M⁻¹ s⁻¹.

Q: What about the Km [8] of the same molecule?
A: Its Km is 170 ± 10 µM.

Q: What about the kcat [8] of the same molecule?
A: The kcat was 24 s⁻¹.

Q: What about the kcat/Km [8] of the same molecule?
A: Its kcat/Km is 150000 M⁻¹ s⁻¹.
